Tests used:
[1] = target: Fc-Fusion Protein (human soluble TNFα receptor linked to the Fc component of human immunoglobulin G1) (human) [IgG part: P01857]; experiment: frontal analysis with CHO supernatant feed, Z4 medium of low ligand density, residence time 6 min
[2] = target: Fc-Fusion Protein (human soluble TNFα receptor linked to the Fc component of human immunoglobulin G1) (human) [IgG part: P01857]; experiment: frontal analysis with CHO supernatant feed, Z4 medium of low ligand density, residence time 2.4 min
[3] = target: Fc-Fusion Protein (human soluble TNFα receptor linked to the Fc component of human immunoglobulin G1) (human) [IgG part: P01857]; experiment: frontal analysis with CHO supernatant feed, fractions analysed on HiTrap MabSelect SuRe, residence time 6 min
[4] = target: Fc-Fusion Protein (human soluble TNFα receptor linked to the Fc component of human immunoglobulin G1) (human) [IgG part: P01857]; experiment: frontal analysis with CHO supernatant feed, fractions analysed on HiTrap MabSelect SuRe, residence time 2.4 min

Substance: Z4, tetramer of alkaline stabilized protein A (SuRe ligand domain / Z domain), MabSelect SuRe (designed binder)
- DBC10% (dynamic binding capacity at 10% breakthrough) [1]: 9 mg/mL
- DBC10% (dynamic binding capacity at 10% breakthrough) [2]: 5 mg/mL
- DBC10% (dynamic binding capacity at 10% breakthrough) [3]: 10 mg/mL
- DBC10% (dynamic binding capacity at 10% breakthrough) [4]: 6 mg/mL
